The record followed here is patent publication US20240000956A1.

Assay [1] concerns the target SpG-type LecRLK-2PAN (Salix purpurea). In words: size exclusion chromatography, self-association. In general terms: SEC sorts molecules by how far they enter the pores of the column.
In assay [2] the target is LecRLK-2RPAN (Salix purpurea). In words: size exclusion chromatography, self-association.

As to SpG-type LecRLK-2PAN (receptor), in assay [1], the percent in higher-order complex (likely a trimer or tetramer) turned out to be 48.2% and the percent monomeric amounted to 51.8%.
In assay [2], LecRLK-2RPAN (receptor) displayed a percent monomeric of 26.4%.
